Assay results reported in patent US20060251733A1.

Biological target: FcγR (receptor for the Fc portion of immunoglobulin molecule) on bone marrow derived macrophages (mouse)
Experiment: cell-based or functional assay

## IgG-opsonized erythrocytes (E-IgG): sheep erythrocytes (SRBC) opsonized with rabbit IgG antibody to SRBC
  IL-10 production by BMMφ (ELISA of supernatants), LPS + E-IgG: 10 ng/mL
  IL-10 production by BMMφ (ELISA of supernatants), LPS + E-IgG against LPS alone: > 5 fold
